Data published in PMC2989778.

Target: hCD40–BAFF-R_(His159-Tyr) chimera (human | mouse) (UniProt P25942)
Assay: co-IP

fold increase in recruitment against hCD40–BAFF-RWT (60 min)	Binder
4 fold	TRAF3 (mouse, endogenous) (natural protein) MESSKKMDAAGTLQPNPPLKLQPDRGAGSVLVPEQGGYKEKFVKTVEDKYKCEKCRLVLCNPKQTECGHRFCESCMAALLSSSSPKCTACQESIIKDKVFKDNCCKREILALQVYCRNEGRGCAEQLTLGHLLVHLKNECQFEELPCLRADCKEKVLRKDLRDHVEKACKYREATCSHCKSQVPMIKLQKHEDTDCPCVVVSCPHKCSVQTLLRSELSAHLSECVNAPSTCSFKRYGCVFQGTNQQIKAHEASSAVQHVNLLKEWSNSLEKKVSLLQNESVEKNKSIQSLHNQICSFEIEIERQKEMLRNNESKILHLQRVIDSQAEKLKELDKEIRPFRQNWEEADSMKSSVESLQNRVTELESVDKSAGQAARNTGLLESQLSRHDQMLSVHDIRLADMDLRFQVLETASYNGVLIWKIRDYKRRKQEAVMGKTLSLYSQPFYTGYFGYKMCARVYLNGDGMGKGTHLSLFFVIMRGEYDALLPWPFKQKVTLMLMDQGSSRRHLGDAFKPDPNSSSFKKPTGEMNIASGCPVFVAQTVLENGTYIKDDTIFIKVIVDTSDLPDP
5 fold	TRAF2 (mouse, endogenous) (natural protein) MAAASVTSPGSLELLQPGFSKTLLGTRLEAKYLCSACKNILRRPFQAQCGHRYCSFCLTSILSSGPQNCAACVYEGLYEEGISILESSSAFPDNAARREVESLPAVCPNDGCTWKGTLKEYESCHEGLCPFLLTECPACKGLVRLSEKEHHTEQECPKRSLSCQHCRAPCSHVDLEVHYEVCPKFPLTCDGCGKKKIPRETFQDHVRACSKCRVLCRFHTVGCSEMVETENLQDHELQRLREHLALLLSSFLEAQASPGTLNQVGPELLQRCQILEQKIATFENIVCVLNREVERVAVTAEACSRQHRLDQDKIEALSNKVQQLERSIGLKDLAMADLEQKVSELEVSTYDGVFIWKISDFTRKRQEAVAGRTPAIFSPAFYTSRYGYKMCLRVYLNGDGTGRGTHLSLFFVVMKGPNDALLQWPFNQKVTLMLLDHNNREHVIDAFRPDVTSSSFQRPVSDMNIASGCPLFCPVSKMEAKNSYVRDDAIFIKAIVDLTGL
